± gives the uncertainty stated by the source.

The series is described as follows: self-splicing fitness, log relative to wild type (ln ratio); higher = more splicing; Tetrahymena group I intron in knt gene, E. coli kanamycin selection, DiMSum; sequences stand for … in CUCUCU…GGAGGGAAAAGUUAUCAGGCAUGCACCUGGUAGCUAGUCUUUAAACCAAUAGAUUGCAUCGGUUUAAAAGGCAAGACCGUCAAAUUGCGGGAAAGGGGUCAACAGCCGUUCAGUACCAAGUCUCAGGGGAAACUUUGAGAUGGCCUUGCAAAGGGUAUGGUAAUAAGCUGACGGACAUGGUCCUAACCACGCAGCCAAGUCCUAAGUCAACAGAUCUUCUGUUGAUAUGGAUGCAGUUCACAGACUAAAUGUCGGUCGGGGAAGAUGUAUUCUUCUCAUAAGAUAUAGUCGGACCUCUCCUUAAUGGGAGCUAGCGGAUGAAGUGAUGCAACACUGGAGCCGCUGGGAACUAAUUUGUAUGCGAAAGUAUAUUGAUUAGUUUUGGAGUACUCGUGGUCG
In a few lines:
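DiMSum derived fitness as the error-weighted combination of fold changes across replicates, kanamycin versus no kanamycin, normalised to wild type. E. coli BL21(DE3) held the library, which randomised all eight P1ex-region intron nucleotides within the knt kanamycin-resistance gene on pET-22b(+). Six replicate transformations grew overnight at 37°C or 30°C on LB agar with or without 25 μg/mL kanamycin, also containing 100 μg/mL carbenicillin, 50 μM IPTG and 0.2% rhamnose, and pooled colonies were amplicon-sequenced on an Illumina HiSeq 2500.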

GUCCAGCAAUAUUACGUUAC: the “self-splicing fitness (ln)” value was -1.55 ± 0.089 (30 °C) and -0.179 ± 0.1 (37 °C).
In the same order, the values of GUCCAGCAAUAUUACGUUGC are -2.05 ± 0.13 and -0.538 ± 0.16.
Take GUCCAGCAAUAUUACGUUUG: the “self-splicing fitness (ln)” value is -2.85 ± 0.11 (30 °C) and -0.981 ± 0.1 (37 °C).
In the same order, the values of GUCGAGCAAUAUUACGAAAC are -2.72 ± 0.41 and -0.657 ± 0.37.
As for GUCGAGCAAUAUUACGAACA, the “self-splicing fitness (ln)” value was -1.67 ± 0.37 (30 °C) and -0.344 ± 0.29 (37 °C).
In the same order, the values of GUCGAGCAAUAUUACGAAUC are -1.52 ± 0.11 and -0.929 ± 0.15.
Take GUCGAGCAAUAUUACGACUU: the “self-splicing fitness (ln)” value was -1.88 ± 0.27 (30 °C) and -1.3 ± 0.32 (37 °C).
For GUCGAGCAAUAUUACGCAAA, the “self-splicing fitness (ln)” value (30 °C) was -2.51 ± 0.39.
As to GUCGAGCAAUAUUACGCAAU, the “self-splicing fitness (ln)” value was -1.08 ± 0.1 (30 °C) and -0.467 ± 0.14 (37 °C).
In the same order, the values of GUCGAGCAAUAUUACGCCAA are -2.68 ± 0.35 and -2.6 ± 0.48.
As to GUCGAGCAAUAUUACGCGGC, the “self-splicing fitness (ln)” value (30 °C) is -3.88 ± 0.47 and the “self-splicing fitness (ln)” value (37 °C) was -2.25 ± 0.39.
In the same order, the values of GUCGAGCAAUAUUACGCGGG are -2.85 ± 0.15 and -1.94 ± 0.19.
With GUCGAGCAAUAUUACGGAAA, the “self-splicing fitness (ln)” value runs as follows: (30 °C) -2.83 ± 0.23; (37 °C) -2.11 ± 0.22.
In the same order, the values of GUCGAGCAAUAUUACGGAAC are -3.01 ± 0.19 and -1.9 ± 0.2.
In the same order, the values of GUCGAGCAAUAUUACGGACU are -3.29 ± 0.47 and -1.73 ± 0.24.
Consider GUCGAGCAAUAUUACGGCUA, for which the “self-splicing fitness (ln)” value is -1.78 ± 0.21 (30 °C) and -1.47 ± 0.18 (37 °C).
In the same order, the values of GUCGAGCAAUAUUACGGGUG are -4.13 ± 0.25 and -2.11 ± 0.19.
In the same order, the values of GUCGAGCAAUAUUACGGGUU are -3.03 ± 0.2 and -1.04 ± 0.16.
Turning to GUCGAGCAAUAUUACGGUUG, the “self-splicing fitness (ln)” value is, setting by setting: (30 °C) -2.68 ± 0.2; (37 °C) -2.15 ± 0.26.
In the same order, the values of GUCGAGCAAUAUUACGUAAG are -2.59 ± 0.14 and -1.34 ± 0.18.
In the same order, the values of GUCGAGCAAUAUUACGUCCC are -1.03 ± 0.19 and -0.687 ± 0.33.
In the same order, the values of GUCGAGCAAUAUUACGUGAC are -4.99 ± 0.45 and -2.57 ± 0.35.
Turning to GUCUAGCAAUAUUACGAAAC, the “self-splicing fitness (ln)” value runs as follows: (30 °C) -0.862 ± 0.13; (37 °C) -0.29 ± 0.14.
With GUCUAGCAAUAUUACGAAGG, the “self-splicing fitness (ln)” value runs as follows: (30 °C) -2.34 ± 0.18; (37 °C) -1.43 ± 0.16.
GUCUAGCAAUAUUACGACUU: the “self-splicing fitness (ln)” value is -1.32 ± 0.12 (30 °C) and -0.56 ± 0.11 (37 °C).
With GUCUAGCAAUAUUACGAGGU, the “self-splicing fitness (ln)” value (37 °C) was -1.99 ± 0.4.
In the case of GUCUAGCAAUAUUACGAUGA, the “self-splicing fitness (ln)” value runs as follows: (30 °C) -1.21 ± 0.28; (37 °C) -0.329 ± 0.13.
In the same order, the values of GUCUAGCAAUAUUACGCAUC are -0.727 ± 0.13 and 0.171 ± 0.14.
GUCUAGCAAUAUUACGCCAA: the “self-splicing fitness (ln)” value (37 °C) is -0.981 ± 0.29.
Consider GUCUAGCAAUAUUACGCUCA, for which the “self-splicing fitness (ln)” value (30 °C) was found to be 0.346 ± 0.16 and the “self-splicing fitness (ln)” value (37 °C) was determined as 0.103 ± 0.19.
Take GUCUAGCAAUAUUACGCUGA: the “self-splicing fitness (ln)” value is, setting by setting: (30 °C) -1.21 ± 0.16; (37 °C) -0.707 ± 0.13.
For the sequence GUCUAGCAAUAUUACGCUGC, where the note is “37 °C”, the “self-splicing fitness (ln)” value is -2.71 ± 0.34.
As to GUCUAGCAAUAUUACGGACA, the “self-splicing fitness (ln)” value was -1.63 ± 0.18 (30 °C) and -0.275 ± 0.14 (37 °C).
In the same order, the values of GUCUAGCAAUAUUACGGCAC are -0.276 ± 0.14 and 0.385 ± 0.13.
As to GUCUAGCAAUAUUACGGGAA, the “self-splicing fitness (ln)” value is -1.24 ± 0.086 (30 °C) and -0.758 ± 0.084 (37 °C).
As to GUCUAGCAAUAUUACGUCAU, the “self-splicing fitness (ln)” value was -0.258 ± 0.12 (30 °C) and -0.425 ± 0.081 (37 °C).
In the same order, the values of GUCUAGCAAUAUUACGUCUU are -0.274 ± 0.09 and 1.25 ± 0.099.
In the same order, the values of GUCUAGCAAUAUUACGUGGA are -2.12 ± 0.23 and -2.69 ± 0.24.

These data come from the supplement of paper PMC7877785.
